# T1: recombinant human LAG-3-Fc (human, UniProt P18627 23-450)
# T1 construct: also called human LAG-3 (R&D Systems cat no. 2319-L3); LAG3 antigen
# T1 sequence: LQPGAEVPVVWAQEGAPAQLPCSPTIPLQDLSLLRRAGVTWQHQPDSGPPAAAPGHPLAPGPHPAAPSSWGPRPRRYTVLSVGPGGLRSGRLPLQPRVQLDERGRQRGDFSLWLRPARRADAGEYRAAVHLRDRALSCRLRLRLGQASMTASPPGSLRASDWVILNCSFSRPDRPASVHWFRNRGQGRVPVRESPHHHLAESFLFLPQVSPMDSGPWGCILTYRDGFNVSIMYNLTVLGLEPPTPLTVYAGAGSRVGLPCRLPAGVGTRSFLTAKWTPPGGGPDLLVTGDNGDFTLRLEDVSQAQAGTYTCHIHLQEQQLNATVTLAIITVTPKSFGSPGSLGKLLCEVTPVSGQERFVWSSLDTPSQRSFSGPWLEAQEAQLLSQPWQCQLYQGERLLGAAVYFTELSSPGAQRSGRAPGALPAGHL
# T2: human LAG-3 domains 1-2-Fc (human, UniProt P18627 23-261, limits assumed)
# T2 construct: Domains were identified as per Huard et al 1997 PNAS 94:5744-9; also called truncated LAG-3
# T2 sequence: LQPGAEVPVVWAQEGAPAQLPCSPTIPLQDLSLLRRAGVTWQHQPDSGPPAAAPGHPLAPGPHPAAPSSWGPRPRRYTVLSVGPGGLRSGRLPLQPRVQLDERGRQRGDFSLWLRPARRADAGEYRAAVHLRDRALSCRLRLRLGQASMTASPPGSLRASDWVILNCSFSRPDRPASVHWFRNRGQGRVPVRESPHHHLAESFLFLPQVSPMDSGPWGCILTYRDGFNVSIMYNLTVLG
# T3: human LAG-3 expressed on cells (human, UniProt P18627 23-525)
# T3 construct: also called CHO cells expressing human LAG-3; CHO human LAG-3 cells
# T3 sequence: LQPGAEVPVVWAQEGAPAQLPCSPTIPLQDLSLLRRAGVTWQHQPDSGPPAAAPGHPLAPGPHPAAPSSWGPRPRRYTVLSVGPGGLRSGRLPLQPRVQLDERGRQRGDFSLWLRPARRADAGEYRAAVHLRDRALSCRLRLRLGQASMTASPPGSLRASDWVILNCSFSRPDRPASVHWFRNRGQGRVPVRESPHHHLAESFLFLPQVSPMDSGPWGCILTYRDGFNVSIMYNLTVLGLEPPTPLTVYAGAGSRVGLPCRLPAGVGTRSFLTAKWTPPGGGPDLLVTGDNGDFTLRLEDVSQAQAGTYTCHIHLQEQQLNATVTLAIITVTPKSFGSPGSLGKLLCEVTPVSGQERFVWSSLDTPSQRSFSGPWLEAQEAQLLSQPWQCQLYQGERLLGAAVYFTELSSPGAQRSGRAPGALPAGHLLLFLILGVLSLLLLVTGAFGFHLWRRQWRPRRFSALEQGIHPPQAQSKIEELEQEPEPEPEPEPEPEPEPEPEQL
# B1: VH1.1-6GS-VH1.1-His6 (VHH)
# chain: EVQLVESGGGVVRPGGSLRLSCSASGFTFDDYGMSWVRQAPGKGLEWVSGIHWNGGNSGYADSVKGRFTISRDNAKNSLYLQMNSLRAEDTALYYCARIPREDCSSASCYTDAIDFWGPGTMVTVSSGGGGSGGGGSGGGGSGGGGSGGGGSGGGGSEVQLVESGGGVVRPGGSLRLSCSASGFTFDDYGMSWVRQAPGKGLEWVSGIHWNGGNSGYADSVKGRFTISRDNAKNSLYLQMNSLRAEDTALYYCARIPREDCSSASCYTDAIDFWGPGTMVTVSSAAAHHHHHH
# notes: Tandem fusion of two VH 1.1, bivalent for LAG-3; The entry includes the C-terminal AAA-His6; also called 1.1-6GS-1.1; bivalent 1.1-6GS-1.1
# Legend:
# CD4 = molecular target: T4, CD4 (UniProt P01730 26-390); test: ELISA, coated antigen, anti-HIS HRP detection
# T4 construct: also called CD4 (R&D Biotechne 514-CD)
# Method: (§1) To screen specificity by ELISA, antigens were coated at 1-5 ug/ml and blocked with Marvel milk powder. VH were added at 10 μg/ml and incubated for 1 hour. After washing, HRP-conjugated anti-HIS antibody (Miltenyi cat no. 130-092-785) was added. TMB substrate and acidic solution were used to develop colorimetric signal.
# [1] = molecular target: T1, recombinant human LAG-3-Fc; test: ELISA, coated antigen, VH at 10 µg/ml, anti-HIS HRP
# Method: as §1
# [2] = molecular target: T2, human LAG-3 domains 1-2-Fc; test: as above
# Method: as §1
# [3] = molecular target: T5, Rhesus monkey LAG-3 (used as cynomolgus LAG-3) (Rhesus monkey (called cynomolgus in the …)); test: as above
# T5 construct: extracellular domain
# Method: as §1
# [4] = molecular target: T1, recombinant human LAG-3-Fc; test: competition ELISA; LAG-3-Fc pre-incubated with VH, binding to coated Galectin-3
# From the text: The plate was blocked with 3% Marvel skimmed milk powder in PBS. […] Wash steps were done 3 times with PBS 0.05% Tween. Colour was developed using TMB and 0.5M sulphuric acid solution.
# [5] = molecular target: T2, human LAG-3 domains 1-2-Fc; test: BLI (Octet); human LAG-3 domains 1-2-Fc captured on protein G biosensors, 1:1 fit
# Method: Binding kinetics for multi-valent and bispecific VH were also measured in real-time bio-layer interferometer based biosensor Octet (ForteBio). […] All the binding studies were performed in HBS-ET Octet kinetics buffer. Biosensors were washed in Octet kinetics buffer in between different steps. […] The contact time for each of the association steps was 150 seconds and the dissociation step was 400 seconds. […] To compare the constructs, kinetic association (kₐ) and dissociation (kd) rate constants were determined by processing and fitting the data to a 1:1 binding model using ForteBio Analysis software.
# [6] = molecular target: T3, human LAG-3 expressed on cells; test: flow cytometry (Intellicyte) on anti-CD3/anti-CD28 stimulated human CD4+ T cells; His-tagged VH detected with anti-HIS biotin and streptavidin AlexaFluor488
# Method: FIG. 2. CD4+ T cells were stimulated with anti-CD3 and anti-CD28. Cells were stained with HIS tagged VH plus anti-HIS tag labelled with biotin and streptavidin AlexaFluor488. Cells were analysed using Intellicyte® cytometer.
# Binding onto human activated T cells was measured by cytometry. PBMC or magnetically isolated T cells were isolated from leukocytes cones and cells were incubated in 96 well plates coated with anti-CD3 (OKT3) at 5 μg/ml. Anti-CD28 (CD28.2) was added at 1 μg/ml in RPMI media and foetal bovine serum. After 72-96 hours, cells were harvested and stained using standard flow cytometry methods. […] Fluorescently labelled anti-CD4 and anti-CD8 were included in PBMC cultures and a live/dead dye. Stained cells were analysed using the IQue cytometer (Intellicyte). EC50 were calculated from the titration curve of median fluorescence of Humabody, gating on CD4+ or CD8+ cells if using mixed cells.
binder,measurement,setting,value
B1,binding result,CD4,no binding (tested: 10 µg/ml VH)
same,ELISA signal over background,[1],> 10 fold over background
same,ELISA signal over background,[2],> 10 fold over background
same,ELISA signal over background,[3],> 10 fold over background
same,IC50,[4],34000 pM
same,Kd,[5],811 pM
same,koff,[5],0.000522 s⁻¹
same,kon,[5],644000 M⁻¹ s⁻¹
same,EC50 (read off the curve),[6],~100 pM
